# Experimental data as given in patent US20050282743A1 (ARBOR VITA, published 2005).
# B1: GST-KIAA0147 PDZ domain 3 (other, not shown: a dimerising Fc or GST)
# chain: ILEGPYPVEEIRLPRAGGPLGLSIVGGSDHSSHPFGVQEPGVFISKVLPRGLAARSGLRVGDRILAVNGQDVRDATHQEAVSALLRPCLELSLLVRRDPAEFIVTD
# B2: GST-TIP1 PDZ domain 1 (Table 9 insert) (other, not shown: a dimerising Fc or GST)
# chain: QRVEIHKLRQGENLILGFSIGGGIDQDPSQNPFSEDKTDKGIYVTRVSEGGPAEIAGLQIGDKIMQVNGWDMTMVTHDQARKRLTKRSEEVVRLLVTRQSLQK
# notes: also called TIP-1 1/1
# B3: GST-PSD95 PDZ domain 3 (other, not shown: a dimerising Fc or GST)
# chain: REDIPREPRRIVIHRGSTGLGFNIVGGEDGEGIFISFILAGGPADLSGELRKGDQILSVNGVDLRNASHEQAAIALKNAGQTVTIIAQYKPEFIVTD
# B4: GST-FLJ00011 PDZ domain 1 (other, not shown: a dimerising Fc or GST)
# chain: KNPSGELKTVTLSKMKQSLGISISGGIESKVQPMVKIEKIFPGGAAFLSGALQAGFELVAVDGENLEQVTHQRAVDTIRRAYRNKAREPMELVVRVPGPSPRPSPSD
# B5: GST-Atrophin-1 Interacting Protein PDZ domain 2 (other)
# chain: LSGATQAELMTLTIVKGAQGFGFTIADSPTGQRVKQILDIQGCPGLCEGDLIVEINQQNVQNLSHTEVVDILKDCPIGSETSLIIHRGGFF
# B6: GST-ERBIN PDZ domain 1 (other, not shown: a dimerising Fc or GST)
# chain: QGHELAKQEIRVRVEKDPELGFSISGGVGGRGNPFRPDDDGIFVTRVQPEGPASKLLQPGDKIIQANGYSFINIEHGQAVSLLKTFQNTVELIIVREVSS
# B7: GST-KIAA1095 PDZ domain 1 (other, not shown: a dimerising Fc or GST)
# chain: QGEETKSLTLVLHRDSGSLGFNIIGGRPSVDNHDGSSSEGIFVSKIVDSGPAAKEGGLQIHDRIIEVNGRDLSRATHDQAVEAFKTAKEPIVVQVLRRTPRTKMFTP
# B8: GST-BAI-1 Associated Protein PDZ domain 2 (other, not shown: a dimerising Fc or GST)
# chain: PSELKGKFIHTKLRKSSRGFGFTVVGGDEPDEFLQIKSLVLDGPAALDGKMETGDVIVSVNDTCVLGHTHAQVVKIFQSIPIGASVDLELCRGYPLPFDPDDPN
# notes: also called BAI-1 (2/6)
# B9: GST-Atrophin-1 Interacting Protein PDZ domain 1 (other, not shown: a dimerising Fc or GST)
# chain: REKPLFTRDASQLKGTFLSTTLKKSNMGFGFTIIGGDEPDEFLQVKSVIPDGPAAQDGKMETGDVIVYINEVCVLGHTHADVVKLFQSVPIGQSVNLVLCRGYP
# notes: also called Atrophin-1 Inter; Prot; Atr-P (1/6)
# B10: GST-NeDLG PDZ domain 3 (other, not shown: a dimerising Fc or GST)
# chain: ILLHKGSTGLGFNIVGGEDGEGIFVSFILAGGPADLSGELRRGDRILSVNGVNLRNATHEQAAAALKRAGQSVTIVAQYRPEEYSRFESKIHDLREQMMNSSMSSGSGSLRTSEKRSLE
# B11: GST-NeDLG PDZ domains 1, 2 (other, not shown: a dimerising Fc or GST)
# chain: YEEIVLERGNSGLGFSIAGGIDNPHVPDDPGIFITKIIPGGAAAMDGRLGVNDCVLRVNEVDVSEVVHSRAVEALKEAGPVVRLVVRRRQPPPETIMEVNLLKGPKGLGFSIAGGIGNQHIPGDNSIYITKIIEGGAAQKDGRLQIGDRLLAVNNTNLQDVRHEEAVASLKNTSDMVYLKVAKPGSL
# notes: domain: PDZ domains 1-2; also called NeDLG 1, 2
# B12: GST-MUPP1 PDZ domain 10 (other, not shown: a dimerising Fc or GST)
# chain: LPGCETTIEISKGRTGLGLSIVGGSDTLLGAIIIHEVYEEGAACKDGRLWAGDQILEVNGIDLRKATHDEAINVLRQTPQRVRLTLYRDEAPYKE
# B13: GST-DLG1 PDZ domain 2 (other, not shown: a dimerising Fc or GST)
# chain: IQLIKGPKGLGFSIAGGVGNQHIPGDNSIYVTKIIEGGAAHKDGKLQIGDKLLAVNNVCLEEVTHEEAVTALKNTSDFVYLKVAKPTSMYMNDGN
# B14: GST-Outer Membrane PDZ domain 1 (other, not shown: a dimerising Fc or GST)
# chain: LLTEEEINLTRGPSGLGFNIVGGTDQQYVSNDSGIYVSRIKENGAAALDGRLQEGDKILSVNGQDLKNLLHQDAVDLFRNAGYAVSLRVQHRLQVQNGIHS
# B15: GST-KIAA1526 PDZ domain 1 (other, not shown: a dimerising Fc or GST)
# chain: PDSAGPGEVRLVSLRRAKAHEGLGFSIRGGSEHGVGIYVSLVEPGSLAEKEGLRVGDQILRVNDKSLARVTHAEAVKALKGSKKLVLSVYSAGRIPGGYVTNH
# B16: GST-KIAA0807(S) PDZ domain 1 (other, not shown: a dimerising Fc or GST)
# chain: ISALGSMRPPIIIHRAGKKYGFTLRAIRVYMGDSDVYTVHHMVWHVEDGGPASEAGLRQGDLITHVNGEPVHGLVHTEVVELILKSGNKVAISTTPLENSS
# B17: GST-DLG2 PDZ domain 2 (other, not shown: a dimerising Fc or GST)
# chain: ISVVEIKLFKGPKGLGFSIAGGVGNQHIPGDNSIYVTKIIDGGAAQKDGRLQVGDRLLMVNNYSLEEVTHEEAVAILKNTSEVVYLKVGNPTTI
# B18: GST-NeDLG PDZ domain 2 (other, not shown: a dimerising Fc or GST)
# chain: ITLLKGPKGLGFSIAGGIGNQHIPGDNSIYITKIIEGGAAQKDGRLQIGDRLLAVNNTNLQDVRHEEAVASLKNTSDMVYLKVAKPGSLE
# Legend:
# [1] = target: HPV E6 #35 (cysteine-free) (HPV strain 35); experiment: G assay titration, PDZ 5 ug/ml
# [2] = target: HPV E6 #66 (cysteine-free) (HPV strain 66); experiment: G assay titration, PDZ 1 ug/ml
# HPV E6 33 (modified) = target: T1, HPV E6 33 (modified) (HPV strain 33); experiment: G assay titration, PDZ 0.5 ug/ml
# T1 construct: also called AA72.1
# [3] = target: HPV E6 #57 (cysteine-free) (HPV strain 57); experiment: G' assay; Classification 0 = A450 nm 0, not found to interact
# HPV E6 77 (modified) = target: T2, HPV E6 77 (modified) (HPV strain 77); experiment: as above
# T2 construct: also called AA78.1
# [4] = target: HPV E6 #66 (cysteine-free) (HPV strain 66); experiment: G assay titration, PDZ 0.5 ug/ml
# HPV E6 58 (modified) [5] = target: T3, HPV E6 58 (modified) (HPV strain 58); experiment: G assay titration, PDZ 5 ug/ml
# T3 construct: also called AA75.1
# HPV E6 58 (modified) [6] = target: T3, HPV E6 58 (modified); experiment: G assay titration, PDZ 3 ug/ml
# HPV E6 58 (modified) [7] = target: T3, HPV E6 58 (modified); experiment: G assay titration, PDZ 0.5 ug/ml
# [8] = target: HPV E6 #66 (cysteine-free) (HPV strain 66); experiment: G assay titration, PDZ 5 ug/ml
# [9] = target: HPV E6 #35 (cysteine-free) (HPV strain 35); experiment: G assay titration, PDZ 0.5 ug/ml
binder,measurement,setting,value
B1,Kd,[1],0.35 µM
B2,Kd,[2],5 µM
B3,Kd,HPV E6 33 (modified),5 µM
B4,Kd,[1],0.35 µM
B5,Kd,[1],0.8 µM
B6,Kd,[1],0.4 µM
B7,Kd,HPV E6 33 (modified),5 µM
B8,binding result,[3],no binding (tested: 10 uM peptide)
same,binding result,HPV E6 77 (modified),no binding (tested: 10 uM peptide)
same,Kd,[4],3 µM
B9,Kd,HPV E6 33 (modified),5 µM
B10,Kd,HPV E6 58 (modified) [5],5 µM
B11,Kd,[4],1 µM
B12,Kd,HPV E6 58 (modified) [6],5 µM
B13,Kd,HPV E6 33 (modified),5 µM
B14,Kd,HPV E6 58 (modified) [7],5 µM
B15,Kd,[1],1 µM
B16,Kd,[8],5 µM
same,Kd,[9],0.1 µM
B17,Kd,[9],0.2 µM
B18,Kd,[4],3.5 µM
